Assay results as given in paper PMC7961821, “Comparing Ligninolytic Capabilities of Bacterial and Fungal Dye-Decolorizing Peroxidases and Class-II Peroxidase-Catalases” (International Journal of Molecular Sciences, 2021).

What was measured:
Test in all cases: purified protein
purified protein [1] = substrate: COc1ccc(C(O)C(CO)Oc2ccccc2OC)cc1OC; assay type: biochemical, Phanerodontia chrysosporium; details: 1 mM H2O2, 100 mM tartrate, pH 3, 25 °C
purified protein [2] = substrate: COc1cc(C(O)C(CO)Oc2ccccc2OC)ccc1O; details: 1 mM H2O2, 100 mM tartrate, pH 3, 25 °C, pH 3.0
purified protein [3] = substrate: CCn1c(=NN=c2sc3cc(S(=O)(=O)O)ccc3n2CC)sc2cc(S(=O)(=O)O)ccc21; assay type: biochemical, Amycolatopsis sp. ATCC 39116; details: 1 mM H2O2, pH 5, 25 °C
purified protein [4] = substrate: COc1cccc(OC)c1O
purified protein [5] = substrate: Nc1c(S(=O)(=O)O)cc(Nc2cccc(S(=O)(=O)CCOS(=O)(=O)O)c2)c2c1C(=O)c1ccccc1C2=O; details: 1 mM H2O2, optimal pH (not given for RB19), 25 °C
purified protein [6] = substrate: CCn1c(=NN=c2sc3cc(S(=O)(=O)O)ccc3n2CC)sc2cc(S(=O)(=O)O)ccc21; assay type: biochemical, Thermomonospora curvata; details: 1 mM H2O2, pH 3, 25 °C
purified protein [7] = substrate: COc1ccc(C(O)C(CO)Oc2ccccc2OC)cc1OC; assay type: biochemical, Pleurotus eryngii; details: 1 mM H2O2, 100 mM tartrate, pH 3, 25 °C
purified protein [8] = substrate: COc1ccc(C(O)C(CO)Oc2ccccc2OC)cc1OC; assay type: biochemical, Auricularia auricula-judae; details: 1 mM H2O2, 100 mM tartrate, pH 3, 25 °C

B1: PchLiPA (Phanerodontia chrysosporium) (protein)
chain: ATCSNGKTVGDASCCAWFDVLDDIQQNLFHGGQCGAEAHESIRLVFHDSIAISPAMEAQGKFGGGGADGSIMIFDDIETAFHPNIGLDEIVKLQKPFVQKHGVTPGDFIAFAGRVALSNCPGAPQMNFFTGRAPATQPAPDGLVPEPFHTVDQIINRVNDAGEFDELELVWMLSAHSVAAVNDVDPTVQGLPFDSTPGIFDSQFFVETQLRGTAFPGSGGNQGEVESPLPGEIRIQSDHTIARDSRTACEWQSFVNNQSKLVDDFQFIFLALTQLGQDPNAMTDCSDVIPQSKPIPGNLPFSFFPAGKTIKDVEQACAETPFPTLTTLPGPETSVQRIPPPPGA
notes: heme enzyme
B1 showed a Km (purified protein [1]) of 88 ± 3 µM, a kcat (purified protein [1]) of 1.3 ± 0.2 s⁻¹ and a kcat/Km (purified protein [1]) of 14.7 ± 0.4 s⁻¹ mM⁻¹. The Km (purified protein [2]) was 208 ± 41 µM, the kcat (purified protein [2]) was 1.3 ± 0.1 s⁻¹ and the kcat/Km (purified protein [2]) was 6.5 ± 0.7 s⁻¹ mM⁻¹.

B2: AspDyP2 (Amycolatopsis sp. ATCC 39116) (protein)
chain: MPVDLSTTLSWKSATGEAATMLDELQPNILKAHVRDRLTVLFLGFGDAAEARTFLNGLSGLMKSARTHLQEVEAHKLTKAVGTPYLGVGLTAHGYATLGVTAPADPSFTAGAKAAVEKLADPAVTEWEGHYQQTIDAVLLLGDATAGPVRTLRRQVEALRPASVTVVGEESGLGLANANGDGIEHFGYVDGRSQPLFLTEDVDAERDTTDGVNDWDPSAPLEQVLVPDPAAPDPTVHFGSYFVFRKLEQNVRLFKEAERDLAHDLGLRGEDRERAGAMLVGRFEDGTPLTAQSAPGSHHPVGNDFSYDSDKLGQKCPFHAHIRKTNPRGSGGAEAPEEERKHLMARRGQTYGRRHDDPNADLPPRLRPAKDVGLLFMAFNSNLGNQFEFTQQIWANNPAFPFPPDGSQPGLDPVIGQGARAPQKYAPEWGHNNVAEATDPIPQAVTMKGGEYFFMPSLAFLRSL
notes: mature protein, codon-optimised, N-terminal His tag (pET28a), soluble from E. coli BL21(DE3) pLysS, heme enzyme
B2 was tested, and the Km (purified protein [3]) was 165 ± 18 µM, the kcat (purified protein [3]) was 30.0 ± 0.9 s⁻¹ and the kcat/Km (purified protein [3]) was 180 ± 20 s⁻¹ mM⁻¹. The Km (purified protein [4]; 1 mM H2O2, pH 4, 25 °C, pH 4.0) was 177 ± 34 µM, the kcat (purified protein [4]; 1 mM H2O2, pH 4, 25 °C, pH 4.0) was 94.0 ± 4.6 s⁻¹ and the kcat/Km (purified protein [4]; 1 mM H2O2, pH 4, 25 °C, pH 4.0) was 530 ± 80 s⁻¹ mM⁻¹. For the same protein, the Km (purified protein [2]) was 179 ± 39 µM, the kcat (purified protein [2]) was 12.0 ± 1.2 s⁻¹ and the kcat/Km (purified protein [2]) was 67.0 ± 8.5 s⁻¹ mM⁻¹. It also gave a Km (purified protein [5]) of 20 ± 4 µM, a kcat (purified protein [5]) of 26.0 ± 2.0 s⁻¹ and a kcat/Km (purified protein [5]) of 1300 ± 200 s⁻¹ mM⁻¹.

B3: TcuDyP (Thermomonospora curvata DSM 43183) (protein)
chain: SEERAAGARPSATQTTGTATEPFHGPHQAGIATPPQAHAVFLGLDLRKGTGRKELGRLMRLLTDDARRLTQGRPALADPEPDLAPLPSRLTFTFGFGPGLFKAAGLEKQRPEGLRPLPPFKVDRLEDRWSGGDLLVQICCDDPITLAHALRMTVKDARAFTRVRWVQRGFRRSPGVQSSGATQRNLMGQLDGTVNPVPGTADFDQAVWVQDGPEWLRGGTTLVLRRIRMELEKWDEADPAGKEFAVGRRLTSGAPLTGRHEHDEPDFDAVDSAGFPVIAENAHIRLAHVDSPRLRMLRRPYNYDEGLTADGRSDAGLLFAAYQADIDRQFIPVQRRLDEGGDLLNLWTTPIGSAVFAIPPGCDENGWIGQGLLG
notes: mature protein without signal peptide, codon-optimised, N-terminal His tag (pET28a), soluble from E. coli BL21(DE3) pLysS, heme enzyme
B3 was tested, and the Km (purified protein [6]) was 309 ± 95 µM, the kcat (purified protein [6]) was 53.0 ± 6.1 s⁻¹ and the kcat/Km (purified protein [6]) was 170 ± 30 s⁻¹ mM⁻¹. It also gave a Km (purified protein [4]; 1 mM H2O2, pH 3, 25 °C, pH 3.0) of 2 ± 0.3 µM, a kcat (purified protein [4]; 1 mM H2O2, pH 3, 25 °C, pH 3.0) of 2.7 ± 0.4 s⁻¹ and a kcat/Km (purified protein [4]; 1 mM H2O2, pH 3, 25 °C, pH 3.0) of 1300 ± 100 s⁻¹ mM⁻¹. For the same protein, the Km (purified protein [2]) was 80 ± 16 µM, the kcat (purified protein [2]) was 1.1 ± 0.1 s⁻¹ and the kcat/Km (purified protein [2]) was 14.2 ± 1.8 s⁻¹ mM⁻¹. The Km (purified protein [5]) was 7 ± 2 µM, the kcat (purified protein [5]) was 1.3 ± 0.1 s⁻¹ and the kcat/Km (purified protein [5]) was 200 ± 40 s⁻¹ mM⁻¹.

B4: PerVPL (Pleurotus eryngii) (protein)
chain: ATCDDGRTTANAACCILFPILDDIQENLFDGAQCGEEVHESLRLTFHDAIGFSPTLGGGGADGSIIAFDTIETNFPANAGIDEIVSAQKPFVAKHNISAGDFIQFAGAVGVSNCPGGVRIPFFLGRPDAVAASPDHLVPEPFDSVDSILARMGDAGFSPVEVVWLLASHSIAAADKVDPSIPGTPFDSTPGVFDSQFFIETQLKGRLFPGTADNKGEAQSPLQGEIRLQSDHLLARDPQTACEWQSMVNNQPKIQNRFAATMSKMALLGQDKTKLIDCSDVIPTPPALVGAAHLPAGFSLSDVEQACAATPFPALTADPGPVTSVPPVPGS
notes: heme enzyme
B4 gave a Km (purified protein [7]) of 659 ± 80 µM, a kcat (purified protein [7]) of 1.2 ± 0.1 s⁻¹ and a kcat/Km (purified protein [7]) of 1.8 ± 0.1 s⁻¹ mM⁻¹. It also gave a Km (purified protein [2]) of 206 ± 17 µM, a kcat (purified protein [2]) of 2.7 ± 0.1 s⁻¹ and a kcat/Km (purified protein [2]) of 13.2 ± 0.7 s⁻¹ mM⁻¹.

B5: AauDyP (Auricularia auricula-judae) (protein)
chain: ATSLNTDDIQGDILVGMHKQKQLFYFFAINDPATFKTHLASDIAPVVASVTQLSNVATQPLVALNIAFSNTGLLALGVTDNLGDSLFANGQAKDATSFKESTSSWVPQFAGTGIHGVIILASDTTDLIDQQVASIESTFGSSISKLYSLSASIRPGNEAGHEMFGFLDGIAQPAINGFNTPLPGQNIVDAGVIITGATNDPITRPSWAVGGSFLAFRQLEQLVPEFNKYLLDNAPAGSGSLQARADLLGARMVGRWKSGAPIDLTPTADDPALGADAQRNNNFTYSHAGFDLGSDQSHCPFSAHIRKTRPRADLGGSLTPPNLSAGANSIMRSGIPYGPEVTSAESASNTTTQERGLAFVAYQAQLSQGFHFLQQTWADNANFPPGKTPATVGLDPIIGQNNGQPRVVNGLLPSNSSASLSIPQFVVSHGGEYFFSPPISAIGGRLSA
notes: heme enzyme
B5 gave a Km (purified protein [8]) of 448 ± 59 µM, a kcat (purified protein [8]) of 0.3 ± 0.01 s⁻¹ and a kcat/Km (purified protein [8]) of 0.7 ± 0.1 s⁻¹ mM⁻¹.
